Measurements reported in paper PMC5477644.

Key:
6His-Ska1/Ska2/Ska3 (WT) = 6His-Ska1/Ska2/Ska3 (WT) (UniProt Q96BD8); assay: SEC + other: velocity sedimentation on a sucrose gradient
tubulin (microtubules) = assay: TIRF, tracking of depolymerizing microtubule ends; conditions: reference: SKA wild type complex; sites S34

6His-Ska1/Ska2/Ska3 (WT) (from UniProt Q96BD8 1-255; Q8WVK7 1-121; Q8IX90 1-412) (complex), sequence (Q96BD8 whole entry): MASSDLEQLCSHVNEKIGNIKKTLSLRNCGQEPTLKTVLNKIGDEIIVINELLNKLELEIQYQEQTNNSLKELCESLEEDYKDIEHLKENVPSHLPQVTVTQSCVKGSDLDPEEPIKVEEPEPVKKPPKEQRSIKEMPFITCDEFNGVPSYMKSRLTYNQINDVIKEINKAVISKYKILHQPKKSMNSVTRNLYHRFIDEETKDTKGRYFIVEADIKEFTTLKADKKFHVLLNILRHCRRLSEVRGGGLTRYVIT
6His-Ska1/Ska2/Ska3 (WT) (from UniProt Q96BD8 1-255; Q8WVK7 1-121; Q8IX90 1-412) (complex), sequence (Q8WVK7 whole entry): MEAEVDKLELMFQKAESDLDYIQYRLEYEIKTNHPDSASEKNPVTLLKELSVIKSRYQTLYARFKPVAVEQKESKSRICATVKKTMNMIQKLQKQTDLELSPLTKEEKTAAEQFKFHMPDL
6His-Ska1/Ska2/Ska3 (WT) (from UniProt Q96BD8 1-255; Q8WVK7 1-121; Q8IX90 1-412) (complex), sequence (Q8IX90 whole entry): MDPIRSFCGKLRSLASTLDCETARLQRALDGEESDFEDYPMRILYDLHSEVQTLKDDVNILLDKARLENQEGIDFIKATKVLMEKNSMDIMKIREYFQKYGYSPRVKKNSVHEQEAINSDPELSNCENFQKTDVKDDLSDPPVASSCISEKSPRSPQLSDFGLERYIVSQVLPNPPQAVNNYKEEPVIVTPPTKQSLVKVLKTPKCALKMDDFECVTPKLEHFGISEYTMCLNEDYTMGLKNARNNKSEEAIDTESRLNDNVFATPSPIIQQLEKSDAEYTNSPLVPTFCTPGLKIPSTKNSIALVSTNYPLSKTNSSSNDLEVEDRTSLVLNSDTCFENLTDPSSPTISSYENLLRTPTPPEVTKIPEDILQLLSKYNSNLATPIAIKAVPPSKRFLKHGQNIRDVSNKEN
Ska3 (C13orf3, RAMA1), sequence (Q8IX90 whole entry, looked up, stated change not applied): as the sequence (Q8IX90 whole entry) above

Substance	stoichiometry N (6His-Ska1/Ska2/Ska3 (WT))	other: median post/pre-conversion intensity ratio (tubulin (microtubules))
6His-Ska1/Ska2/Ska3 (WT) (from UniProt Q96BD8 1-255; Q8WVK7 1-121; Q8IX90 1-412) (complex)	2	–
Ska3 (C13orf3, RAMA1) (from UniProt Q8IX90) SKA S34A complex	–	same; reference 1.01
